Results on 3 variants are retold here after IntAct's records for PubMed 16326715.

First the molecules themselves.
B1: Neutrophil cytosol factor 1 (Homo sapiens), P14598 (parent)
chain: MGDTFIRHIALLGFEKRFVPSQHYVYMFLVKWQDLSEKVVYRRFTEIYEFHKTLKEMFPIEAGAINPENRIIPHLPAPKWFDGQRAAENRQGTLTEYCSTLMSLPTKISRCPHLLDFFKVRPDDLKLPTDNQTKKPETYLMPKDGKSTATDITGPIILQTYRAIANYEKTSGSEMALSTGDVVEVVEKSESGWWFCQMKAKRGWIPASFLEPLDSPDETEDPEPNYAGEPYVAIKAYTAVEGDEVSLLEGEAVEVIHKLLDGWWVIRKDDVTGYFPSMYLQKSGQDVSQAQRQIKRGAPPRRSSIRNAHSIHQRSRKRLSQDAYRRNSVRFLQQRRRQARPGPQSPGSPLEEERQTQRSKPQPAVPPRPSADLILNRCSESTKRKLASAV
partner: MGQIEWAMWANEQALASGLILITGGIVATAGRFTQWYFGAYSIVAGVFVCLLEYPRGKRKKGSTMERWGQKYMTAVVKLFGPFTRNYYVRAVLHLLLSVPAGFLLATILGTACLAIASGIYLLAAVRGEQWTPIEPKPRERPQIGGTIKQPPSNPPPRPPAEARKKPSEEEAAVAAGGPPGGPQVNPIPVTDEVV
B2: Cytochrome b-245 light chain (Homo sapiens), P13498 (parent)
chain: B1 partner

In the first experiment the parent is B1. The note with it: with cy24a_human CYBA, P13498.
Consider MGDTFIRHIALLGFEKRFVPSQHYVYMFLVKWQDLSEKVVYRRFTEIYEFHKTLKEMFPIEAGAINPENRIIPHLPAPKWFDGQRAAENRQGTLTEYCSTLMSLPTKISRCPHLLDFFKVRPDDLKLPTDNQTKKPETYLMPKDGKSTATDITGPIILQTYRAAANYEKTSGSEMALSTGDVVEVVEKSESGWWFCQMKAKRGWIPASFLEPLDSPDETEDPEPNYAGEPYVAIKAYTAVEGDEVSLLEGEAVEVIHKLLDGWWVIRKDDVTGYFPSMYLQKSGQDVSQAQRQIKRGAPPRRSSIRNAHSIHQRSRKRLSQDAYRRNSVRFLQQRRRQARPGPQSPGSPLEEERQTQRSKPQPAVPPRPSADLILNRCSESTKRKLASAV [I164A], for which the “effect of a mutation on the interaction” value is given as “decreasing interaction”.
For the variant MGDTFIRHIALLGFEKRFVPSQHYVYMFLVKWQDLSEKVVYRRFTEIYEFHKTLKEMFPIEAGAINPENRIIPHLPAPKWFDGQRAAENRQGTLTEYCSTLMSLPTKISRCPHLLDFFKVRPDDLKLPTDNQTKKPETYLMPKDGKSTATDITGPIILQTYRAIANYEKTSGSEMALSTGDVVEVVEKSESGWWFCQMKAKRGWIPASALEPLDSPDETEDPEPNYAGEPYVAIKAYTAVEGDEVSLLEGEAVEVIHKLLDGWWVIRKDDVTGYFPSMYLQKSGQDVSQAQRQIKRGAPPRRSSIRNAHSIHQRSRKRLSQDAYRRNSVRFLQQRRRQARPGPQSPGSPLEEERQTQRSKPQPAVPPRPSADLILNRCSESTKRKLASAV [F209A], the “effect of a mutation on the interaction” value is given as “decreasing interaction”.

The variants in the next experiment derive from B2. The following applies: with ncf1_human NCF1, P14598.
With MGQIEWAMWANEQALASGLILITGGIVATAGRFTQWYFGAYSIVAGVFVCLLEYPRGKRKKGSTMERWGQKYMTAVVKLFGPFTRNYYVRAVLHLLLSVPAGFLLATILGTACLAIASGIYLLAAVRGEQWTPIEPKPRERPQIGGTIKQPPSNPPPRPPAEGGKKPSEEEAAVAAGGPPGGPQVNPIPVTDEVV [A163G;R164G], the “effect of a mutation on the interaction” value is recorded as “decreasing interaction”.
